# Biological target: full-length HPV-16 E2 protein (E2 transactivator expressed from plasmid pAHE2) (human papillomavirus strain 16 (HPV-16), UniProt P03120)
# Test: cell-based or functional assay
row,Binder,"% repression (E2 repression assay, COS7 cells, without chloroquine)"
1,"TxHE2CCSS (tat37-72 chemically cross-linked to E2.123CCSS) (other, cysteine cross-linked through bismaleimidohexane (BMH) to tat37-72; 1 transport molecule per E2 repressor homodimer; cysteine coupled to bismaleimidohexane (BMH)) MVPDTGNPCHTTKLLHRDSVDSAPILTAFNSSHKGRINCNSNTTPIVHLKGDANTLKSLRYRFKKHSTLYTAVSSTWHWTGHNVKHKSAIVTLTYDSEWQRDQFLSQVKIPKTITVSTGFMSI peptide: CFITKALGISYGRKKRRQRRRPPQGSQTHQVSLSKQ",69.4 % repression
2,HE2.123 (unconjugated E2.123 repressor protein) (other) MVPDTGNPCHTTKLLHRDSVDSAPILTAFNSSHKGRINCNSNTTPIVHLKGDANTLKCLRYRFKKHCTLYTAVSSTWHWTGHNVKHKSAIVTLTYDSEWQRDQFLSQVKIPKTITVSTGFMSI,0.3 % repression
3,JB106 (other) MYGRKKRRQRRRPPDTGNPCHTTKLLHRDSVDSAPILTAFNSSHKGRINCNSNTTPIVHLKGDANTLKCLRYRFKKHCTLYTAVSSTWHWTGHNVKHKSAIVTLTYDSEWQRDQFLSQVKIPKTITVSTGFMSI,94.3 % repression
